Laboratory results from the supplement of paper PMC10065799, “High-throughput profiling of sequence recognition by tyrosine kinases and SH2 domains using bacterial peptide display” (eLife, 2023).

Assays:
c-Src SH2 = experiment: SH2 binding enrichment of the phosphorylated peptide, bacterial display (enrichment ratio); higher = better substrate or ligand; peptides without Tyr show the background
SHP2-C SH2 = experiment: as above
Grb2 SH2 = Grb2 SH2 (UniProt P62993); experiment: as above
c-Abl (mouse) = experiment: phosphorylation enrichment, bacterial display (enrichment ratio); higher = better substrate or ligand; peptides without Tyr show the background
EPHB2 = EPHB2 (UniProt P29323); experiment: as above
FGFR3 = FGFR3 (UniProt P22607); experiment: as above
EPHB1 = EPHB1 (UniProt P54762); experiment: as above
Chain of EPHB1 (P54762 whole entry, looked up): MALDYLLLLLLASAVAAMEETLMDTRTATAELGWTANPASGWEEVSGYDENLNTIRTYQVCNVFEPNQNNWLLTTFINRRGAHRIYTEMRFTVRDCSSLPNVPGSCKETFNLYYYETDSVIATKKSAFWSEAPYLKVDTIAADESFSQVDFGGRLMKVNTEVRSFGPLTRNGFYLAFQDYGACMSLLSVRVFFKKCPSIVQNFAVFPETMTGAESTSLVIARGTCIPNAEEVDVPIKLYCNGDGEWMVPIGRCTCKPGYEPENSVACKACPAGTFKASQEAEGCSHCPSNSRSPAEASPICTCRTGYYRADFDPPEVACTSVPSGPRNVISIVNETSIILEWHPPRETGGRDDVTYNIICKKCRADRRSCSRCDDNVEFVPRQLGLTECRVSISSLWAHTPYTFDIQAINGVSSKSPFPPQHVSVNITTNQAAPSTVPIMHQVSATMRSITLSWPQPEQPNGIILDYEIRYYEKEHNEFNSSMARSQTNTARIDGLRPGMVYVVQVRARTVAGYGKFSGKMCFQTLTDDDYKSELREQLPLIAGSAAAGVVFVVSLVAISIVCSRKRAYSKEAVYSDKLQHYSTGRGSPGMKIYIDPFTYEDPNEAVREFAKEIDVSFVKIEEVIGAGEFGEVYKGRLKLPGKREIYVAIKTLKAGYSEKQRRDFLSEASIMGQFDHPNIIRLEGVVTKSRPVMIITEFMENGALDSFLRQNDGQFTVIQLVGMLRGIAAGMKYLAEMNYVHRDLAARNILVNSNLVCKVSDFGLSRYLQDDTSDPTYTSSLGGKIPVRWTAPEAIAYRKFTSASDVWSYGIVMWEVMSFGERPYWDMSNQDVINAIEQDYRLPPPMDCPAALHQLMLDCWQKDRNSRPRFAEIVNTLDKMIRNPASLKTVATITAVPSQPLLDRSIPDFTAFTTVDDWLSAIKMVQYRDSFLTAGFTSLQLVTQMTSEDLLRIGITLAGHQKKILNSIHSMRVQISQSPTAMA

MERTK = MERTK (UniProt Q12866); experiment: as above
Chain of MERTK (Q12866 whole entry, looked up): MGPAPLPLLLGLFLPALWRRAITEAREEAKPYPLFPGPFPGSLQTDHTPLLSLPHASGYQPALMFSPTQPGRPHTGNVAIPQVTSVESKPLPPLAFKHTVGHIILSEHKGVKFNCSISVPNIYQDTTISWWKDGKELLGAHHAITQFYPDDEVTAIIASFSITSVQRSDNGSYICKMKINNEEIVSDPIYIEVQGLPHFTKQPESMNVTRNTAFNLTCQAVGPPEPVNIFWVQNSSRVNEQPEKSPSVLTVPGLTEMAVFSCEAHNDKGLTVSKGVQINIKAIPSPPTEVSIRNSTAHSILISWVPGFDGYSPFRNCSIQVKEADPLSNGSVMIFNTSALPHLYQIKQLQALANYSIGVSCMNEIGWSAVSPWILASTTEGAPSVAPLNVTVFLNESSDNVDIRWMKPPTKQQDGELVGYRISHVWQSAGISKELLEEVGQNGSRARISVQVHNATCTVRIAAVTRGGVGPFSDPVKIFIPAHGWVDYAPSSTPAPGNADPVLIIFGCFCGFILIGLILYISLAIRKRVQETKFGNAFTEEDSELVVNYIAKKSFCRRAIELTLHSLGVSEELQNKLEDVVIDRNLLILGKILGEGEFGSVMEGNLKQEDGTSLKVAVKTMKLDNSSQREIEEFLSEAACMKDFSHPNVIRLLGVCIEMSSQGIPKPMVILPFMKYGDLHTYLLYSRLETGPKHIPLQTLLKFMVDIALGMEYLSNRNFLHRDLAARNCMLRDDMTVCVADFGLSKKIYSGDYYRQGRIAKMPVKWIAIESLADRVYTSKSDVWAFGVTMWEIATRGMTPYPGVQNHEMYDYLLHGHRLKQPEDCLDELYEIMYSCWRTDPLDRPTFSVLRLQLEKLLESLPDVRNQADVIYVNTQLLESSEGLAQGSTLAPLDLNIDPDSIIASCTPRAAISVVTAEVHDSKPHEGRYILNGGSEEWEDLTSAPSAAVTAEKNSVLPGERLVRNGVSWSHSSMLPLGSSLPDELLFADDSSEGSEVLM

Fes = Fes (UniProt P07332); experiment: as above
Chain of Fes (P07332 whole entry, looked up): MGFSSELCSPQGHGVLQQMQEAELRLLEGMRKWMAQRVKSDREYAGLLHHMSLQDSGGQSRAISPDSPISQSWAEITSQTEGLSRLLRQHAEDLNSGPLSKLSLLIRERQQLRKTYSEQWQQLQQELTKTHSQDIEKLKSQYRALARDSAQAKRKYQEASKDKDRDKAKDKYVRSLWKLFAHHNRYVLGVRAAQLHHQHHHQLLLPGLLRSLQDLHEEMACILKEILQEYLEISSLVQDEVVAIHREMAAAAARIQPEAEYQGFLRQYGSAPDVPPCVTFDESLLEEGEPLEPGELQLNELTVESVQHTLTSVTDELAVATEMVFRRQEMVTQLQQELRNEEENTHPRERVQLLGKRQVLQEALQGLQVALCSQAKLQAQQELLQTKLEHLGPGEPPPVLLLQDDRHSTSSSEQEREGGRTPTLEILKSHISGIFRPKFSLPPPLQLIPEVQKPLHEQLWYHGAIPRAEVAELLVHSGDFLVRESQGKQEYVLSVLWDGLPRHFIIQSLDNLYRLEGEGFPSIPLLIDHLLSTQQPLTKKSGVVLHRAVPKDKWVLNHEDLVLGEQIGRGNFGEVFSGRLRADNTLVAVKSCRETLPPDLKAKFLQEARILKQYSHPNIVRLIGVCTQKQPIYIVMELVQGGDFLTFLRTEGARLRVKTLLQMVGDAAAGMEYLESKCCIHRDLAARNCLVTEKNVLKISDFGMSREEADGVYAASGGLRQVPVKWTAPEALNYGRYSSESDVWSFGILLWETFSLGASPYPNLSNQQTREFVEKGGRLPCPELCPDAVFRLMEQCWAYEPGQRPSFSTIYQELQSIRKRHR

FGFR1 = FGFR1 (UniProt P11362); experiment: as above
Chain of FGFR1 (P11362 whole entry, looked up): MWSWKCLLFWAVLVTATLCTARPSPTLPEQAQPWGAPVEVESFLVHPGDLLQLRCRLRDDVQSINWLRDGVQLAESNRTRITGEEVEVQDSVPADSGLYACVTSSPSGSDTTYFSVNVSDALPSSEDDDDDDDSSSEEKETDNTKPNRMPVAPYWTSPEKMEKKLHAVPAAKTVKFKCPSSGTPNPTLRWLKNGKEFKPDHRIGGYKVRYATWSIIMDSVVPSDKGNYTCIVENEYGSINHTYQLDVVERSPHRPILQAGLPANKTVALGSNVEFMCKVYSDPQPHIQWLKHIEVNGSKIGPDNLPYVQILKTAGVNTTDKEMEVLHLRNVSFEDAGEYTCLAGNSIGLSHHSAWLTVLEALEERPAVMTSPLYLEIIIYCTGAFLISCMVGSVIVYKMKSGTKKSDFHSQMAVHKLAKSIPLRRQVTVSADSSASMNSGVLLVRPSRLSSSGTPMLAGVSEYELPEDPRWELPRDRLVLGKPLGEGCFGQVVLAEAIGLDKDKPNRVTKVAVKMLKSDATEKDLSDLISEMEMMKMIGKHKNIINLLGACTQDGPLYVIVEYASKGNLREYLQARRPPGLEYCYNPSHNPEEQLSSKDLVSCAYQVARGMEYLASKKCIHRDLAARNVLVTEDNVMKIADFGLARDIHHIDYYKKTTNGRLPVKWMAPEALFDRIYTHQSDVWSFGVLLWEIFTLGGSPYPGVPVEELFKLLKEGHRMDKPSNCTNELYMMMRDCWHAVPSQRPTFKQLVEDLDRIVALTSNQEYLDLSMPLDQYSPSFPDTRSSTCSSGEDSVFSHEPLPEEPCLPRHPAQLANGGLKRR

Jak2 = Jak2 (UniProt O60674); experiment: as above
c-Src = experiment: as above
Fer (mouse) = experiment: as above
Hck = Hck (UniProt P08631); experiment: as above
Chain of Hck (P08631 whole entry, looked up): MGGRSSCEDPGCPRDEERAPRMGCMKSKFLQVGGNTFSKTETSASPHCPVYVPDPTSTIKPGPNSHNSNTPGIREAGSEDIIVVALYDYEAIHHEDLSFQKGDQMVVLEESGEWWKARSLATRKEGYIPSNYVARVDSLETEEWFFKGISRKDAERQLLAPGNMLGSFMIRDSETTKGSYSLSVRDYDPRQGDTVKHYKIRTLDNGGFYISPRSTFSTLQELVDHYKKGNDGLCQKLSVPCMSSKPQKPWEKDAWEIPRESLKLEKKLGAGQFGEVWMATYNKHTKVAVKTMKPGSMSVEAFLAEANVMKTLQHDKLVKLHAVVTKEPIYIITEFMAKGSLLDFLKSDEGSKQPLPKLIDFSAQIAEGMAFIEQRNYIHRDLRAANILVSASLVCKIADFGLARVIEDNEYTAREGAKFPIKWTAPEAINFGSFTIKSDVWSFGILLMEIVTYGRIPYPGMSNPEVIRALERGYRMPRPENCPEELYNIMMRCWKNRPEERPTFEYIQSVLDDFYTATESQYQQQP

Fyn = Fyn (UniProt P06241); experiment: as above
Chain of Fyn (P06241 whole entry, looked up): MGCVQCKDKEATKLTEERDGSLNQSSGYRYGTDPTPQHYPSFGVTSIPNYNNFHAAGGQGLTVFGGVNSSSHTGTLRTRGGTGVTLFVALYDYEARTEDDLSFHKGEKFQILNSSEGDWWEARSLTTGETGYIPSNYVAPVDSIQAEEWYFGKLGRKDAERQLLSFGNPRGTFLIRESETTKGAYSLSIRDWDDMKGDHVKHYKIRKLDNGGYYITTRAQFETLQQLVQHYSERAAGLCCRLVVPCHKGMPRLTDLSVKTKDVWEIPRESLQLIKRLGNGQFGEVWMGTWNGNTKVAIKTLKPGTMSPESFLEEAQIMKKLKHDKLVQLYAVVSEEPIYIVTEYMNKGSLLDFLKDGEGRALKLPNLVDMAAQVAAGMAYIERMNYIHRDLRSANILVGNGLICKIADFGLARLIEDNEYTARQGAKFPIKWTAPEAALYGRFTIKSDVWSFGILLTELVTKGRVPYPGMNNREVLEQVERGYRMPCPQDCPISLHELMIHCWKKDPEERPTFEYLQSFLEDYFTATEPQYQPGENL

AncSZ = experiment: as above
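For SH2 binding enrichment of the phosphorylated peptide, bacterial display in this document: peptide library displayed on the E. coli surface as eCPX fusions, selected cells deep-sequenced, score is each peptide's frequency after selection divided by its frequency in the input.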
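For phosphorylation enrichment, bacterial display in this document: 11-residue human phosphosite peptides and single-mutation variants displayed on the E. coli surface, counted by deep sequencing, each peptide's frequency after selection divided by its frequency in the unselected input library; frequency after pTyr selection over input frequency; kinase dosed for 20-30% of maximal phosphorylation in three min.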

Row | Sequence | SH2 binding enrichment (c-Src SH2) | SH2 binding enrichment (SHP2-C SH2) | SH2 binding enrichment (Grb2 SH2) | phosphorylation enrichment (c-Abl (mouse)) | phosphorylation enrichment (EPHB2) | phosphorylation enrichment (FGFR3) | phosphorylation enrichment (EPHB1) | phosphorylation enrichment (MERTK) | phosphorylation enrichment (Fes) | phosphorylation enrichment (FGFR1) | phosphorylation enrichment (Jak2) | phosphorylation enrichment (c-Src) | phosphorylation enrichment (Fer (mouse)) | phosphorylation enrichment (Hck) | phosphorylation enrichment (Fyn) | phosphorylation enrichment (AncSZ)
1 | QDRDLYPCPGT [RLF_Y671] | 0.644 | 0.717 | 1.11 | 0.863 | 0.693 | 0.878 | 0.71 | 0.751 | 1.37 | 0.484 | 1.1 | 0.613 | 0.687 | 0.429 | 0.936 | 1.05
2 | FSAPNCCFRCG [PPP2CA_Y265_Y265C_YF] | 0.585 | 0.751 | 0.931 | 0.658 | 0.461 | 0.663 | 0.559 | 0.486 | 0.974 | 0.458 | 0.833 | 0.448 | 0.48 | 0.479 | 0.458 | 0.856
3 | ATHRSYDSDNP [MMUT_Y146_G145S] | 0.651 | 0.509 | 1.07 | 0.518 | 0.459 | 0.511 | 0.346 | 0.57 | 0.777 | 0.593 | 0.543 | 0.447 | 0.422 | 0.476 | 0.47 | 1.13
4 | AFLEDYFTSTE [SRC_Y522] | 0.578 | 0.959 | 0.967 | 1.31 | 0.606 | 1.42 | 0.598 | 0.578 | 1.83 | 1.16 | 1.46 | 0.783 | 0.572 | 0.549 | 0.54 | 1.91
5 | AFRRGYFDEEM [PLEC_Y2971_YF] | 0.636 | 0.334 | 0.73 | 0.763 | 0.616 | 0.673 | 0.514 | 0.551 | 1.29 | 0.633 | 1.7 | 0.6 | 0.445 | 0.599 | 0.622 | 1.58
6 | VGEGPYLISDL [ABCC12_Y7] | 0.414 | 0.663 | 0.786 | 0.768 | 0.5 | 0.734 | 0.65 | 0.468 | 1.01 | 0.466 | 1.05 | 0.752 | 0.578 | 0.483 | 0.507 | 0.952
7 | PFSNSYENSLI [EPOR_Y489_P488S_YF] | 5.68 | 1.13 | 29.8 | 0.877 | 0.498 | 1.51 | 1.15 | 0.402 | 1.21 | 0.577 | 1.16 | 0.862 | 0.809 | 0.78 | 0.727 | 1.4
8 | VNCHQYDGLVE [ATP2A2_Y407] | 12.5 | 0.983 | 1.18 | 0.672 | 0.659 | 0.818 | 0.658 | 0.499 | 1.2 | 0.614 | 0.848 | 0.531 | 0.598 | 0.651 | 0.626 | 1.06
9 | MSSHHYDYKKY [ZNF445_Y428] | 0.64 | 0.692 | 0.799 | 0.438 | 0.375 | 0.46 | 0.394 | 0.339 | 0.513 | 0.338 | 0.441 | 0.383 | 0.408 | 0.421 | 0.415 | 0.503
10 | LSIDRYHAIVY [NPSR1_Y147] | 5.31 | 1.03 | 1.25 | 0.982 | 0.594 | 1.87 | 0.438 | 0.7 | 1.15 | 3.36 | 1.65 | 0.89 | 0.544 | 0.533 | 0.546 | 0.83
11 | DPEAAYTTRGG [EPHA3_Y779] | 0.357 | 0.588 | 0.872 | 0.559 | 0.385 | 0.507 | 0.466 | 0.374 | 0.717 | 0.376 | 0.652 | 0.475 | 0.45 | 0.468 | 0.531 | 0.629
12 | SRDPFYEMLTA [CYTH1_Y382_A386T] | 2.25 | 0.747 | 0.958 | 0.71 | 2.82 | 4.25 | 4.93 | 8.32 | 1.07 | 7.02 | 0.975 | 3.17 | 11 | 5.45 | 2.38 | 1.25
13 | DFRTTYVNANE [KCNH2_Y475_N470D] | 2.81 | 2.23 | 23.1 | 0.405 | 0.512 | 0.596 | 0.366 | 0.415 | 0.781 | 0.414 | 0.649 | 0.378 | 0.38 | 0.44 | 0.491 | 0.732
14 | PLLEYYWDIFT [CDAN1_Y713_R714W] | 0.959 | 1.25 | 1.25 | 1.61 | 1.28 | 7.06 | 2.64 | 1.02 | 2.27 | 8.76 | 2.65 | 1.19 | 0.906 | 0.79 | 1.32 | 2.64
15 | TKDTFYKQPMF [GBA_Y451] | 0.401 | 0.692 | 0.571 | 0.954 | 0.37 | 0.42 | 0.257 | 0.385 | 0.638 | 0.389 | 0.535 | 0.42 | 0.362 | 0.39 | 0.419 | 0.583

Now from value to sequence, other results behind:

Row | SH2 binding enrichment (c-Src SH2) | SH2 binding enrichment (SHP2-C SH2) | SH2 binding enrichment (Grb2 SH2) | Sequence | phosphorylation enrichment (c-Abl (mouse)) | phosphorylation enrichment (EPHB2) | phosphorylation enrichment (FGFR3) | phosphorylation enrichment (EPHB1) | phosphorylation enrichment (MERTK) | phosphorylation enrichment (Fes) | phosphorylation enrichment (FGFR1) | phosphorylation enrichment (Jak2) | phosphorylation enrichment (c-Src) | phosphorylation enrichment (Fer (mouse)) | phosphorylation enrichment (Hck) | phosphorylation enrichment (Fyn) | phosphorylation enrichment (AncSZ)
16 | 0.661 | 0.598 | 0.73 | TTICKYITPME [GUCY2C_Y839_S840I] | 0.56 | 0.466 | 0.56 | 0.485 | 0.421 | 0.873 | 0.558 | 0.728 | 0.458 | 0.417 | 0.469 | 0.418 | 0.99
17 | 0.9 | 1.17 | 1.15 | QRIFQYIQSRF [DYRK1B_Y273_YF] | 0.583 | 0.356 | 0.619 | 0.707 | 0.728 | 1.45 | 0.416 | 1.58 | 0.557 | 0.693 | 0.572 | 0.502 | 1.09
18 | 0.665 | 0.687 | 0.978 | KNEVLYDGENH [ARFGEF1_Y314] | 0.668 | 0.525 | 0.475 | 0.403 | 0.398 | 0.836 | 0.399 | 0.763 | 0.418 | 0.401 | 0.436 | 0.422 | 0.943
19 | 0.682 | 0.604 | 0.925 | EQSGSYIWVPA [DLG1_Y895] | 0.807 | 0.615 | 5.15 | 0.892 | 3.33 | 1.16 | 8.59 | 1.19 | 0.511 | 0.514 | 0.487 | 0.471 | 1.86
20 | 4.13 | 0.695 | 0.968 | GIFSGYDDAWD [POLR1C_Y36_N32I_YF] | 0.746 | 0.651 | 0.7 | 0.51 | 0.481 | 1.14 | 0.531 | 1.07 | 0.514 | 0.477 | 0.547 | 0.551 | 1.1
21 | 0.55 | 0.839 | 0.774 | EFNINYNNELP [THG1L_Y228] | 0.444 | 0.516 | 0.568 | 0.383 | 0.341 | 0.829 | 0.488 | 1.07 | 0.354 | 0.38 | 0.429 | 0.468 | 0.734
22 | 0.516 | 0.567 | 0.866 | EAVKNYTDKRG [PBRM1_Y672] | 0.489 | 0.498 | 0.459 | 0.484 | 0.478 | 0.653 | 0.418 | 0.56 | 0.433 | 0.41 | 0.38 | 0.421 | 0.56
23 | 0.607 | 0.473 | 0.644 | SRASYYRKGGC [ALK_Y1283_Y1278S] | 0.585 | 0.371 | 0.335 | 0.34 | 0.428 | 0.5 | 0.414 | 0.641 | 0.52 | 0.326 | 0.37 | 0.38 | 0.522
24 | 1.11 | 0.803 | 0.841 | IPGRFYETGSI [PAX2_Y73_L69P_YF] | 0.552 | 0.858 | 0.614 | 0.441 | 0.415 | 0.723 | 0.635 | 0.662 | 0.549 | 0.357 | 0.517 | 0.492 | 0.733
25 | 0.359 | 0.391 | 0.595 | LRRFIYRPPDQ [OTOF_Y1231_R1236Q] | 0.333 | 0.606 | 0.397 | 0.409 | 0.516 | 0.606 | 0.443 | 0.502 | 0.318 | 0.445 | 0.493 | 0.479 | 0.675
26 | 1.04 | 1.4 | 1.4 | VIKDKYPKVRF [APTX_Y209_A212V_YF] | 0.56 | 0.373 | 0.599 | 0.4 | 0.4 | 0.591 | 0.444 | 0.734 | 0.452 | 0.448 | 0.443 | 0.278 | 0.493
27 | 0.385 | 0.665 | 0.691 | RQAQAYRGQRV [TSHR_Y706] | 1.25 | 0.99 | 1 | 0.564 | 0.831 | 1.51 | 1.23 | 1.62 | 1.36 | 0.909 | 0.839 | 1 | 1.82
28 | 0.47 | 0.685 | 0.823 | KDHLDYKFQPR [SOX9_Y172_P170L_YF] | 0.642 | 0.478 | 0.531 | 0.475 | 0.409 | 1.02 | 0.498 | 0.922 | 0.504 | 0.392 | 0.352 | 0.431 | 0.73
29 | 0.396 | 0.676 | 0.683 | AHAGEYGAEAL [HBA1_Y25] | 0.629 | 0.394 | 0.517 | 0.368 | 0.343 | 0.816 | 0.35 | 0.66 | 0.392 | 0.382 | 0.464 | 0.387 | 0.675
